Source: patent US9951359B2, “Heat-stable, FE-dependent alcohol dehydrogenase for aldehyde detoxification” (UT-BATTELLE, LLC, priority 2013, dated 2018)
Where two headings read alike, the source gives them in different places.

Columns and labels:
[1] = tested on: Thermoanaerobacter pseudethanolicus 39E (Teth39E); experiment: Growth of Teth39E with furan aldehydes (optical density at 600 nm); assay type: cell-based; conditions: for specific growth rate: 65° C.; for IC50: Thermoanaerobacter pseudethanolicus, read-out: furan aldehyde concentration which resulted in 50% inhibition of growth (IC50)
Method: Teth39E (DSMZ 2355) was purchased from Deutsche Sammlung von Mikroorganismen and Zellkulturen GmbH (DSMZ). Anaerobic growth medium was prepared anaerobically by a modified Hungate technique and consisted of 4.5 mM KCl, 4.7 mM NH4Cl, 2.5 mM MgSO4.7H2O, 1.0 mM NaCl, 0.7 mM CaCl2.2H2O, […] resazurin, 2.8 mM cysteine-HCl, 6.0 mM NaHCO3, 1 mM potassium phosphate buffer (pH 6.8), 10 mM 3-(N-morpholino)-propanesulfonic acid (pH 6.8), 1× Wolfe's trace minerals, 1× Wolfe's vitamin supplement, 0.1% (w/v) yeast extract, and 40 mM glucose [Miller and Wolin (1974) Appl. Microbiol. 27:985-987; Wolin et al. (1963) J. Biol. Chem. 238:2882-2886]. Furan aldehydes were added from degassed concentrated stock solutions. Cultures were grown at 65° C. from a 1% inoculum in Balch tubes (10 mL) or 125 mL serum bottles (50 mL) Cell growth was monitored by optical density at 600 nm, either directly in the Balch tube using a Spectronic 200 spectrophotometer (Thermo Fisher Scientific, Waltham, Mass.) or as 200 μL samples transferred to a 96-well plate and read on a Synergy Mx plate reader (BioTek, Winooski, Vt.). All growth experiments were performed in triplicate.
Lower concentrations of furfural (10 and 20 mM) and 5-hydroxymethylfurfural (10 mM) stimulated growth of Teth39E, with increased cell yields after 12 h for both (see FIGS. 1A and 1B). […] The IC50 for 5-HMF was between 20 and 30 mM after both 12 and 24 h.

[2] = tested on: protein encoded by the Teth39_1597 locus (bdhA); experiment: Proteome comparison of Teth39E grown in the presence or absence of furfural; assay type: cell-based, Thermoanaerobacter pseudethanolicus 39E; conditions: Teth39E grown in the presence of 15 mM furfural
Method: To identify the enzymes responsible for furfural and 5-HMF conversion, the proteomes were compared for strain Teth39E grown in the presence or absence of 15 mM furfural.

BdhA (Teth39_1597) [3] = experiment: Aldehyde reductase enzyme assay with whole cell lysates of E. coli overexpressing BdhA (NAD(P)H oxidation at 340 nm); assay type: biochemical, Thermoanaerobacter pseudethanolicus 39E; conditions: for specific activity with NADPH as a cofactor / BdhA Aldehyde Activities (specific activity): whole cell lysate; for BdhA Aldehyde Activities (specific activity): 60° C.; for BdhA Aldehyde Activities (specific activity) / Specific activity: aerobic
Method: Teth39E genomic DNA was isolated using the Wizard Genomic DNA Purification kit (Promega, Madison, Wis.). The bdha gene was PCR amplified using Phusion polymerase (New England Biolabs, Ipswich, Mass.) and cloned into pET30a (EMD Millipore, Billerica, Mass.) behind 6× His- and S-tags. Expression plasmids were transformed in BL21 (DE3) E. coli according to the manufacturer's protocol (Invitrogen, Grand Island, N.Y.). Cells were grown in 50 mL 2×YT medium at 37° C. to OD600 of 0.8-1.0, then induced with 100 μM isopropyl-β-D-thiogalactopyranoside and switched to 30° C. for 16 h. Cells were harvested at 4° C. (3,000×g, 30 min), washed in 50 mL 100 mM sodium phosphate buffer, pH 7 (buffer A), and re-suspended in 5 mL buffer A. Enzyme assays were performed aerobically at 60° C. with whole cell lysates and specific activity was determined by measuring the change in absorbance at 340 nm due to oxidation of NADPH or NADH.
Cell suspension (450 μL) was added to 0.1 mm zirconia beads (300 μL) and vortexed 4×60 sec with 30 sec on ice in between. Samples were centrifuged (14,000×g, 2 min) and the resulting supernatant was used for enzyme assays.
For the enzyme assays, Buffer A (1 mL), 10 mM NAD(P)H (25 μL), and 400 mM aldehyde (50 μL) were added to a 2 mL quartz cuvette, sealed with a butyl stopper, and equilibrated to 60° C. Assays were read at 340 nm (DU 800) for 150 sec to establish a baseline slope before whole cell lysate was added (1-5 μL). Cuvettes were inverted once to mix and read an additional 450 sec. The decrease in absorbance over time was calculated and the baseline slope was subtracted. NAD(P)H concentration was determined using the extinction coefficient (NADH: 6220 M^−1 cm ^−1, NADPH: 6270 M^−1 cm^−1) and specific activity was calculated as the change in μmoles NAD(P)H/min/mg of whole cell lysate protein. Protein concentration was determined using the Bradford assay (Bio-Rad, Hercules, Calif.) with bovine serum albumin as a standard. Specific activity was measured for the pET30a vector (control) and overexpressed Teth39_1597 (BdhA) with acetaldehyde, butyraldehyde, isobutyraldhyde, furfural, and 5-HMF. Furfural was also assayed under anaerobic conditions. BdhA activity was compared to the vector-only control.

BdhA (Teth39_1597) [4] = experiment: Optimal temperature and pH of purified BdhA enzyme (butyraldehyde, NADPH); assay type: biochemical, Thermoanaerobacter pseudethanolicus 39E
Method: The optimal temperature for BdhA activity was determined from purified enzyme as follows. A 1 liter culture of E. coli BL21 (DE3) harboring the pET30a-BdhA expression construct (see FIG. 6A) was grown to mid-log phase and induced with 0.4 mM IPTG and allowed to incubate for 16 h at 30° C. with shaking at 250 rpm. The induced cells were harvested via centrifugation at 5,000×g for 20 min at 4° C. and washed 3 times with 40 mL ice-cold phosphate buffered saline (PBS) at pH 7.2 and placed on ice. The cell pellet was resuspended in binding buffer (20 mM sodium phosphate, 500 mM NaCl, 20-40 mM imidazole, pH 7.4) containing 0.2 mg/mL lysozyme, 20 μg/mL DNAse, 1 mM MgCl2, 1 mM PMSF and stirred for 30 min at room temperature. The cells were then subjected to 5×2 min rounds of sonication (Branson Sonifier 450 with microtip, duty cycle at 30%) while kept in an ice water bath. The lysate was centrifuged at 7,500×g for 20 min at 4° C. and the supernatant was transferred to a new 50 mL conical tube. […] For determining the optimal temperature for BdhA, 1 mL assays containing 100 mM phosphate buffer (pH 7.5), 20 mM butyraldehyde, and 0.25 mM NADPH were monitored for loss of absorbance at 340 nm for 20 seconds at 30-90° C. in 5° C. intervals. […]
The optimum pH was also determined for BdhA by using butyraldehyde as the substrate and NADPH as the cofactor. […]

Molecule | specific growth rate ([1]; 10 mM furan aldehyde) | IC50 ([1]; after 12 h) | IC50 ([1]; after 24 h) | expression of Teth39_1597 protein upregulated [2] | specific growth rate ([1]; 20 mM furan aldehyde) | activity above the vector control using NADH as the cofactor (BdhA (Teth39_1597) [3]; NADH as cofactor) | specific activity with NADPH as a cofactor (BdhA (Teth39_1597) [3]; butyraldehyde as substrate) | activity against butyraldehyde (BdhA (Teth39_1597) [3]; butyraldehyde, NADPH) | specific activity with NADPH as a cofactor (BdhA (Teth39_1597) [3]; expressed in E. coli, various aldehydes) | BdhA Aldehyde Activities (specific activity) (BdhA (Teth39_1597) [3]; substrate 5-HMF, NADPH) | BdhA Aldehyde Activities (specific activity) (BdhA (Teth39_1597) [3]; substrate acetaldehyde, NADPH) | BdhA Aldehyde Activities (specific activity) (BdhA (Teth39_1597) [3]; substrate butyraldehyde, NADPH) | BdhA Aldehyde Activities (specific activity) (BdhA (Teth39_1597) [3]; substrate furfural, NADPH) | BdhA Aldehyde Activities (specific activity) (BdhA (Teth39_1597) [3]; substrate isobutyraldehyde, NADPH) | Specific activity (BdhA (Teth39_1597) [3]; with 5-HMF, NADPH) | Specific activity (BdhA (Teth39_1597) [3]; with furfural, NADPH) | optimal temperature for BdhA activity (BdhA (Teth39_1597) [4]; 20 mM butyraldehyde, 0.25 mM NADPH, pH 7.5, 30-90° C.) | optimum pH (optimal relative activity) (BdhA (Teth39_1597) [4]; butyraldehyde, NADPH, buffers pH 4-10)
O=Cc1ccc(CO)o1 [5-HMF, 5-hydroxymethyl furfural] | 0.51 ± 0.03 h⁻¹ | 20 to 30 mM | 20 to 30 mM | – | – | – | – | – | – | – | – | – | – | – | – | – | – | –
O=Cc1ccco1 [furfural] | 0.52 ± 0.03 h⁻¹ | 30 mM | 30 to 40 mM | approximately 7 fold | 0.43 ± 0.03 h⁻¹ | – | – | – | – | – | – | – | – | – | – | – | – | –
BdhA: heat-stable, NADPH- and iron-dependent alcohol dehydrogenase cloned from Thermoanaerobacter pseudethanolicus 39E (SEQ ID NO: 2) (protein, listed as Thermoanaerobacter pseudethanolicus) MMKFEFYNPTRLIFGAGSLGQLGKVVNQYGKKALLVIGGGSVKKSGAFDRAVASLKAAGVLVVEFSGVEPNPRLSTVVRASELAKKEACDVVIGMGGGSVMDASKVIAASVLYEGDPKDMLVRAGKAPRLPERALPIITVPTLAATGSEMNNGAVITIDDEGEKLKTFVQAEVLYPRVAVVDPELTMTVPKNHTAFGVCDIITHVTEGYFNGIDGTPLQDRFAEGVILTVLEWGPKAVSDGSDLEARTQVQWASIVALNGWVQVGTNGAYPVHMIEHTLSALYDIPHGAGLAVVNPAWMRFAARFRPERFAQFAQRIFGLTATGKDTLSLAMEGIDKFEEFLRSIGCPTRLSELGIGEITEEMLFRYAEETLKVLQDEEGRLPGRPSLRKEDIVEILRMAM | – | – | – | – | – | No activity was detected | at least 14 μmole/min/mg | approximately 14.58±3.57 μmoles/min/mg | at least 0.5 μmole/min/mg | 10.06 ± 0.80 | 4.54 ± 0.76 | 14.58 ± 3.57 | 4.97 ± 0.17 | 0.63 ± 0.29 | 10.06±0.80 U | 4.97±0.17 U | 75 °C | 8.0 pH units
